These results are taken from US20140221622A1 (AbbVie / Abbott, published 2014).

Read-outs that look alike come from different tables or passages of the source.

The target in experiment [1] is T1, CD40 on CD40-overexpressing HEK 293 cells (UniProt P25942 21-277, limits assumed).
T1 construct: whole, on cells
The experiment can be described thus: flow cytometry on CD40-overexpressing HEK 293 cells, APC anti-human Fc. (In general: Flow cytometry measures light scatter and fluorescence of single cells or particles in a stream.)
Experimental: Followed by 30 min incubation on ice with an APC-conjugated anti-human Fc antibody. Cells then are washed twice and resuspended in PBS/FBS. Fluorescence was measured using a Becton Dickinson FACSCalibur (Becton Dickinson, San Jose, Calif.).

The target in experiment [2] is T1, CD40 on CD40-overexpressing HEK 293 …. Described as above. This is another data set of the same source.
Experimental: First, the CD40-overexpressing HEK 293 cells were stained with hIgG1 or testing material at a range of 0.01 μg/ml to 10 μg/ml. Followed by 30 min incubation on ice with an APC-conjugated anti-human Fc antibody. Cells then are washed twice and resuspended in PBS/FBS. Fluorescence was measured using a Becton Dickinson FACSCalibur (Becton Dickinson, San Jose, Calif.).
The binding of proteins were examined by FACS.
Experiment [3] has the same target. The experiment can be described thus: cell-based or functional assay.

T1 sequence (P25942 21-277 limits assumed): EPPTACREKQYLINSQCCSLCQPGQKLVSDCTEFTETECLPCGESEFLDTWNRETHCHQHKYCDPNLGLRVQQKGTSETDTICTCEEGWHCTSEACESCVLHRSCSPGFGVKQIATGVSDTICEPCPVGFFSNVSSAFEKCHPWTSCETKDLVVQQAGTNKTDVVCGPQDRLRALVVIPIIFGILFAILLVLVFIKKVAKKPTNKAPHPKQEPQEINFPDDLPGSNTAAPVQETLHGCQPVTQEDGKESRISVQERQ

B1: Anti-CD40 Ig (21.4.1 variable domains on human Cg1/Ck) (antibody, human IgG1, kappa)
heavy: not shown
light: DIQMTQSPSSVSASVGDRVTITCRASQGIYSWLAWYQQKPGKAPNLLIYTASTLQSGVPSRFSGSGSGTDFTLTISSLQPEDFATYYCQQANIFPLTFGGGTKVEIKRTVAAPSVFIFPPSDEQLKSGTASVVCLLNNFYPREAKVQWKVDNALQSGNSQESVTEQDSKDSTYSLSSTLTLSKADYEKHKVYACEVTHQGLSSPVTKSFNRGEC
As usually defined, the EC50 is the concentration giving half of the maximal effect. On to B1, for which the EC50 in experiment [1] stood at 0.24 µg/mL; in experiment [2] it was 0.084 µg/mL. Besides, the “agonist activity, NFkB-SEAP reporter in HEK 293 cells, EC50” value in experiment [3] stood at 0.12 µg/mL.
